Reference: patent publication US20240245805A1 (Orna Therapeutics, Inc., priority 2020, published 2024)

B1: HAV HM175 (nucleic acid)
chain: CGCCGTTTGCCTAGGCTATAGGCTAAATTTTCCCTTTCCCTTTTCCCTTTCCTATTCCCTTTGTTTTGCTTGTAAATATTGATTTGTAAATATTGATTCCTGCAGGTTCAGGGTTCTTAAATCTGTTTCTCTATAAGAACACTCATTTCACGCTTTCTGTCTTCTTTCTTCCAGGGCTCTCCCCTTGCCCTAGGCTCTGGCCGTTGCGCCCGGCGGGGTCAACTCCATGATTAGCATGGAGCTGTAGGAGTCTAAATTGGGGACACAGATGTTTGGAACGTCACCTTGCAGTGTTAACTTGGCTTTCATGAATCTCTTTGATCTTCCACAAGGGGTAGGCTACGGGTGAAACCTCTTAGGCTAATACTTCTATGAAGAGATGCCTTGGATAGGGTAACAGCGGCGGATATTGGTGAGTTGTTAAGACAAAAACCATTCAACGCCGGAGGACTGACTCTCATCCAGTGGATGCATTGAGTGGATTGACTGTCGGGGCTGTCTTTAGGCTTAATTCCAGACCTCTCTGTGCTTGGGGCAAACATCATTTGGCCTTAAATGGGATTCTGTGAGAGGGGATCCCTCCATTGCCAGCTGGACTGTTCTTTGGGGCCTTATGTGGTGTTTGCCGCTGAGGTACTCAGGGGCATTTAGGTTTTTCCTCATTCTTAAATAATA
modifications: lipid formulation; Hepatovirus A
B2: Orivirus (nucleic acid, listed as Orivirus sp.)
DNA: GGTCCCAGGCCAATATTCTTCGTAAGGCTTGGTTCCAATTTTCCACCACTCGTGTTTGGGTTCTGGCCTATGGTACCCAGAGGGGCGGTTTGGGGGAATTAACTCCCCCTCCCCTGTGGTCCTATACCACCCCACACCTCTGTGGGCTTTCTTTACTATCTTCTTGTTTTCCGACTTTTAAACACTAGGCAGGCGCGCCTAGTCATACACCGCCCGGCTGGTCTTTCCAGCTCTTGTGGGCGGTGCGCGCTGGTCCATCGTGCCCAGCGACATAGCACCTTGTGGACACCTCCGAACGCCCTCCCCTGTATGGGGTGGTGCCCAGGGGTTTCAGTGTGGTGACACACTCCCTGGGGCCCGAAAGGCTAGTGTGCAACAGGTGAGGTACAGCCAGCTGCCCCCGTGGCTGGAGGGACCAAGCTTGTGAAGCACACCTCACCTTCTTGGGGGTGGGCTAGTAAGTGGTGAAAGCATAGTGTCCGTGTCGCTGGCCAACACTTTGGGTCAAGTCCAGCCACTCAGTGAGTAGATGCCCAGGAGGTACCCCTAGTGGATCTGACTTGGGGCCTGTTACTTAATGCAGGTTAAAAACTATGAAAGCTGAGTAGTGTAGCCCGGCTGGTGGCTTCTCTTCCTTATTCATTCTATTTTATGGTGACAAACGCAACTGAAGCC
modifications: lipid formulation
B3: Limnipivirus C (nucleic acid)
DNA: GTTTCTGAGCACTGGTAAGAGCTTAGACAAACGTTTTTAAAATTTATTTTCTCTGCAACTTTTGTTTGTGTTTATTTTTATTTGTTAATTTTGCGCCTAAGCATTTGTTGCGAAGTATTTGATTCATTAGTAATATTACTTATTGTTTATTTAGATGGTATTCAAAGTGGTGGGAGTATCGAACCCAAGCGTCGTATGCTATCTCCTTGAACAATTTTTAATCATTGCGAAGTGATCATTGAAAAGGATAGGTGTTTAAGAACTCAAAGAGTGTTAATAATGTTGGGTGACAGGTGTCCCCATAGAATTTATTAACATGATTTGGACTGGTTATCTAGTAAGAAGAACCATCGAACGCACGAGCGAGCATTGCTTGCGGGGCAGTTACCCTGCGTCGATGTAAGTGTGTACCGGGGGGTGCACATGTTGATTCTTTATGGCCTGATAGGGTGCGTCATTCGCGCCTAGATAATTAGTATAATGCGAATGGAATAAATTTAC
modifications: lipid formulation; Limnipivirus C
B4: Simian Sapelovirus 1 (nucleic acid, listed as Sapelovirus sp.)
DNA: CCAAGGATCTGTTGCATAGGCGTTGTATCCCCTAACCTTTTACCTACCCATCCCAATAGGACTGGTATTTCGGTTTTGATTGAGTAATGGATACTGATTCTATACCTGTTACCCATTCAGGGGAAAAATGGAGTTTCTTTCATGGATCTGACTTGATATGACCAAGAGTCAACACTTTGCGTGTTGGCCGTATGGAATGCTTTAAGGTTTATTCTTTGGATTATGACTTCAGGGTTGGCCGCCCAGGATAAAAGGCAATTGTGGTAAGTGATGTTAGTCATTGGTGGTTGAAACCTGCCTAAGACGTCCTAGGTCTACGCTGTGCGGGCCGAAGTAAGCTTAGGAATAACAGGGAGTATGCCATTTTCTGCTTTCACCCAACACGACCGTACACGAAAGAGCTAGAGGCACTTTGGGGCAAAGGGAAAAGCTTTGCTTAGCCCGAATGTTCATTTGAGTCCTTGACGAATGCGTCCCGTCTGTCCCGACGGTGAGGCGTATGGCGCATGCTCATGGCATTACCCAATGGTGTATCTGTGAGGGGGGGGCTCCTCACACTTAGTCTAGTGCTACCTGACAGGGCCGCGGCTGGTCGTTTGTGTATGGTATAACCAGTAGTAATCCCCCATGGATTGCTTTAACTTCCCCTCCTCCCTTACCAAGACATTCTCTAAG
B5: Parechovirus D (nucleic acid)
DNA: ACATGGGGCAGGTGTGCTGTGCCAAGAGCAACACTACGGTGGCCGAGCCGATGGTTCGTCACCACGTAGTAGGACTCCGTAGTGCTTGGTTACGGCGGACGTAAGTCAGTTGAGTGATGTCTAAGTGGCAAACCATGAGTACATGGTAACCTTGTGTGGACTCGCGGGACGGAATTTCCTATCCCATTGACTCCTTGTAGCAAGGTGGGTATACCCAACCACAATGGCAGCACCCTGGGTGGGAACCCAGGGGCCTGGATTAGTATCCAGTCACACAGCCTGATAGGGTGGCGGCTCAGCCACTGACCAGCGTCTCTAAATAATTGTGAGCTGTTCATGCACC
modifications: lipid formulation; Parechovirus D
B6: Simian Sapelovirus 2 (nucleic acid, listed as Sapelovirus sp.)
DNA: TTTTAACTTGTTATGACATTCAAGGAAAAAATGTCTTTTTCATTATGGGACTGACCTGTTTATGAACATGAGCAGCGGCACTGCTCCACGGGCTATCCGTGTAAGAAATATTGATTATTCTTATGGATCATGATTTCAGGGTTGGCCGCCCAGTCTAAAAGGCAATTGTGGTAAGCTATGTAAGTAGTTGGCTGTTGAAAGGAGCCAAGTACATCCTAGGTCTACGCTGTGCGGGCCGAAGTAAGACTTGGAACAACTCTGAGTAGGCAGTTTTTCTCTTTAGCCCAACACGACCGCATACTGAAGAGCTAGAGGCACTTTGGGGCAAAGGTAAAAGCATTGCTTAGACCGAATGTTCAATGAGACCTTGACGAGTGCTGTCACAGTGTCCCCTGATGGCAGTATGGCGCATGCTCTTGGCATTACCCATATGTGTATCTATAGGGGGGGGGCCCCCTATACTTAGTCTAGTGCTACCTGACAGGGCCGCGGCTGGTCGTCGGTGTGTGGTATAACCAGTAGTAATCCCCCATGGATTGCTTTAACTCCCCCTCCTCCCTCAACAAAACTTTCTCTAAG
B7: Parechovirus C (nucleic acid)
DNA: CGGTCATCCCCCTTTCCCCACAGCCGGTGTGGGTTCTAATCGGCTCCTACTAAACACCTAAGCATCACTGCGCCTCTATCTCTCCTATCCACAGGTCTAAGACGCTTGGAATAAGACATGTGGGTGCAATAGGAAGATTAGCTAGTCCAATCTCTCCTTCCAGCTACGCTTCTCCCTTCGATGAGCGTAGGGGGGGCCCCCACCTCCCTCATCTCTGGATAGGGCTCTTGCTACGGGGCTTTCCCGTCTGGACCAGCAGGCCCACTGGTGCGCTTCCATTCAAGTTTAGTGTGCATTACTGTCTGAAATATTGCTTTGCTAGGATCTAGTGTAGCGACCTGCATATTGCCAGCGGACTTCCCCACATGGTAACATGTGCCTCTGGGCCCAAAAGGCATGTCTTTGACCGTATGCAGTACAACCCCAGTATAGGTCCTTTCTATGGCAGTATGGATCTCAGTGATGAGTCTATACAGAATATGGAAGTGGTTCGGATATGTCAGCCCGAAGGATGCCCAGAAGGTACCCGCAGATAACCTTAAGAGACTGTGGATCTGATCTGGGGCCCACCACCTTCGGGTGGGTAGAAGCTAACCATGCCTTGGGTTAAAAAACGTCTAAGGGCTGACCAGACCCGGGGGATCCGGGTTTTCCCTATCTTGACCTACTCTAATC
modifications: lipid formulation; Parechovirus C
B8: Rabovirus A NYC-B10 (nucleic acid)
DNA: CCGACCCCACTGGTCGAAGGCCACTTGGCAATAAGACTGGTGGAACAAGGTCGCCTGTAGTTGATTGGAACCTTCTTTCTAATGACTTATGTCAGCGGTGCTACTCACACCGTAACTCTCCTACCCTATCCCCACGCTTGTGGAACTAGGAGGGGATGAGTGATTCAAGTAAGTACTGTCAGAATGGTGAAAATAATCTGATTCTGAAACGCTATGGATCCATCGAAAGATGGGGCTACACGCCTGCGGAACAACACATGGTAACATGTGCCCCAGGGGCCGAAAGCCACGGTGATAGGATCACCCGTGTAGTTTGAGATCATATCAATGTTCATAGTCTAGTAAGATGATTTGAAATCTAACTGGTCTGATGGCTAACTGCTTGTCTTATTGCGGCCTAAGGATGTCCTGCAGGTACCTTTAGAGAACCTTAAGAGACTATTGATCTGAGCAGGAGCCAAGGTGGTCTTTCCCAGCCTTGGTTAAAAAGCGTCTAAGCCGCGGCAGGGGGCGGGAGGCCCCCTTTCCTCCCAAACTATAATATAGATTGT
modifications: lipid formulation; Rabovirus A
B9: HAV FH1 (nucleic acid)
chain: CTTGATACCTCACCGCCGTTTGCCTAGGCTATAGGCTAAATTTCCCTTTCCCTGTCCTTTCCCTATTTCCTTTTGTTTTGTTTGTAAATATTAATTCCTGCAGGTTCAGGGTTCTTTAATCTGTTTCTCTATAAGAACACTCAATTTTCACGCTTTCTGTCTCCTTTCTTCCAGGGCTCTCCCCTTGCCCTAGGCTCTGGCCGTTGCGCCCGGCGGGGTCAACTCCATGATTAGCATGGAGCTGTAGGAGTCTAAATTGGGGACGCAGATGTTTGGGACGTCGCCTTGCAGTGTTAACTTGGCTTTCATGAACCTCTTTGATCTTCCACAAGGGGTAGGCTACGGGTGAAACCTCTTAGGCTAATACTTCTATGAAGAGATGCCTTGGATAGGGTAACAGCGGCGGATATTGGTGAGTTGTTAAGACAAAAACCATTCAACGCCGAAGGACTGGCTCTCATCCAGTGGATGCATTGAGGGAATTGATTGTCAGGGCTGTCTCTAGGTTTAATCTCAGACCTCTCTGTGCTTAGGGCAAACACTATTTGGCCTTAAATGGGATCCTGTGAGAGGGGGTCCCTCCATTGACAGCTGGACTGTTCTTTGGGGCCTTATGTGGTGTTTGCCTCTGAGGTACTCAGGGGCATTTAGGTTTTTCCTCATTCTTAAACAATA
modifications: lipid formulation; Hepatovirus A

Tested on: HEK293 cells
Type: cell-based, human
Details: circular RNA encoding Gluc with the listed IRES (UTR truncated to 675 nt) transfected into HEK293 cells; supernatant after 24 hours

| Molecule | Expression (luminescence from secreted Gluc protein) |
| --- | --- |
| B1 | 4.96E+05 |
| B2 | 6.09E+05 |
| B3 | 1.35E+05 |
| B4 | 6.55E+07 |
| B5 | 3.10E+05 |
| B6 | 4.24E+07 |
| B7 | 1.24E+06 |
| B8 | 1.24E+06 |
| B9 | 1.24E+05 |
